Columns and labels:
Pro-5 cells = assay: Confocal microscopy of live cells; assay type: cell-based, Chinese hamster; settings: 5 μM, 4 h
Experimental: (§1) Cell lines were obtained from American Type Culture Collection (Manassas, Va.) and were maintained according to the recommended procedures. Cells were grown in a cell culture incubator at 37° C. under CO2 (5% v/v) in flat-bottomed culture flasks. Cell medium was supplemented with GIBCO fetal bovine serum (FBS) (10% v/v), penicillin (100 units/mL), and streptomycin (100 μg/mL) in the appropriate cellular medium as follows: Pro-5, MEM α+ribonucleosides+deoxyribonucleosides; Lec-2, MEM α-ribonucleosides-deoxyribonucleosides; and K562, RPMI 1640. Cells were counted by hemocytometry for dispensing into 12-well plates (Corning Costar, Lowell, Mass.) or 8-well chambered coverglass slides (Nuc Lab-Tek II, Thermo Scientific).
Pro-5 cells were plated on Nunc Lab-tek II 8-well chambered coverglass 24 h before use and grown to 80% confluency. Cells were incubated with 5 μM BODIPY FL-labeled ribonucleases for 4 h. Cell nuclei were stained with Hoechst 33342 (Invitrogen, 2 μg/mL) for the final 15 min of incubation. Cells were then washed twice with PBS, suspended in PBS, and examined using a Nikon Eclipse C1 laser scanning confocal microscope. Results are illustrated in FIG. 4B.

[1] = Heparin-affinity assay (retention on immobilized heparin column); assay type: binding; settings: for retention on column of heparin in presence of fructose: 0.10 M fructose in elution buffer
Experimental: To assess the affinity of boronated proteins for oligosaccharides the retention of boronated proteins compared to unmodified protein can be measured on a heparin column.
For example, the affinity of unmodified and benzoboroxole-boronated RNase A for heparin was assessed by retention on a 1.0-mL HiTrap Heparin HP column (GE Healthcare, Piscataway, N.J.). Unmodified and benzoboroxole-boronated RNase A were mixed in a 1:1 ratio (2.0 mg each) in DPBS, and the resulting solution was loaded onto the column. The column was washed with 5 mL of PBS, followed by elution with 45 mL of a linear gradient of NaCl (0.0-1.0 M) in PBS. Elution was monitored by absorbance at 280 nm, and eluted proteins were identified by mass spectrometry. FIG. 2 illustrates an elution profile of a mixture of unmodified RNase A and benzoboroxole-boronated RNase A from a column of immobilized heparin (solid lines). A small amount of unmodified RNase A was apparent in peak B (FIG. 2). It is currently believed that benzoboroxole-boronated RNase A was able to complex to a small amount of unmodified RNase A and extend its elution time. The same assay was then repeated with 100 mM fructose in both buffers (FIG. 2, dashed line). To make fructose-supplemented buffers, fructose (18 g, 100 mmol) was added to 100 mL of a 10× stock solution of PBS, either no additional NaCl or NaCl (58.4 g, 1.00 mol) was added, and both buffers were diluted to a final volume of 1 L and adjusted to pH 7.4.

6-FAM-dArUdAdA-6-TAMRA = assay: Ribonucleolytic activity assay; assay type: biochemical; settings: relative to unmodified RNase A; 0.10 M MES-NaOH buffer, pH 6.0, NaCl 0.10 M
Experimental: Assays were carried out at ambient temperature in 2 mL of 0.10 M MES-NaOH buffer, pH 6.0, containing NaCl (0.10 M). Fluorescence data were fitted to the equation: kcat/KM=(ΔI/Δt)/(If−I0)[E], in which ΔI/Δt is the initial reaction velocity, I0 is the fluorescence intensity before addition of ribonuclease, If is the fluorescence intensity after complete substrate hydrolysis, and [E] is the total ribonuclease concentration. The assay was performed in triplicate.

Lec-2 cells = assay: Cellular internalization by flow cytometry; assay type: cell-based, Chinese hamster
Experimental: as §1
BODIPY-FL was excited with a 488 nm solid-state laser and the emission was collected with a 530/30 bandpass filter. To collect the most reproducible data, for every flow cytometry experiment, the sensitivity (voltage) of the photomultiplier tube was set for all data collections using mid-range Rainbow beads from Spherotech (Lake Forest, Ill.) to a predetermined fluorescence target value. At least 10,000 cellular events were acquired for each sample. Data were analyzed using FlowJo 8.1.3 (Treestar, Ashland, Oreg.).
The day prior to an experiment, Pro-5 and Lec-2 cells were plated in 12-well plates at 1×10^5 cells/well. The day of the experiment, the appropriate amount of fructose was dissolved into the cellular medium to obtain a final fructose concentration of 250 mM, and the medium was passed through a 0.45-μm syringe filter from Whatman (Piscataway, N.J.). Non-fructose-containing medium was filtered likewise. Stock solutions of fluorescently labeled ribonucleases were diluted into the cell culture to a final concentration of 5 μM. Ribonucleases were incubated with cells for 4 h. Cells were then rinsed with PBS (2×400 μL), removed from the cell culture plate with trypsin (400 μL, 0.05% (1×) with EDTA; Invitrogen, Carlsbad, Calif.), placed in flow cytometry tubes containing 80 μL of FBS, and incubated on ice until analyzed by flow cytometry. Final fluorescence values were divided by the percent fluorophore labeling of the ribonuclease to determine the corrected value of fluorescence. Experiments were run twice in triplicate unless otherwise indicated. Data is illustrated in FIG. 4A and FIG. 4C.

B1: benzoboroxole-boronated RNase A: RNase A with 5-amino-2-hydroxymethylphenylboronic acid conjugated to protein carboxyl groups by carbodiimide condensation (conjugate, UniProt P61823 27-150, looked up)
Ribonuclease pancreatic: KETAAAKFERQHMDSSTSAASSSNYCNQMMKSRNLTKDRCKPVNTFVHESLADVQAVCSQKNVACKNGQTNCYQSYSTMSITDCRETGSSKYPNCAYKTTQANKHIIVACEGNPYVPVHFDASV
modifications: benzoboroxole conjugated to carboxyl groups
notes: RNase A with 5-amino-2-hydroxymethylphenylboronic acid conjugated to protein carboxyl groups by carbodiimide condensation
intracellular staining pattern (Pro-5 cells): punctate staining
retention on column of heparin in presence of fructose [1]: diminishing retention
retention on column of heparin in presence of fructose ([1]; listed as boronated RNAse A): diminished the retention
retention on column of heparin ([1]; versus unmodified RNase A, NaCl gradient in PBS): retained longer
ribonucleolytic activity retained (6-FAM-dArUdAdA-6-TAMRA): 17±2%
increase in cellular uptake (Lec-2 cells; 5 μM, 4 h, relative to unmodified RNase A): 4- to 5 fold
effect of fructose on enhancement of cellular uptake (Lec-2 cells; fructose 0.25 M): eliminated

From patent US9732101B2, “Bioreversible boronates for delivery of molecules into cells” (WISCONSIN ALUMNI RESEARCH FOUNDATION, priority 2012, dated 2017)
